Assay results as given in patent US20080318845A1.

Biological target: rat VPAC1 receptor (rat) (UniProt P30083)
Test: cell-based or functional assay

Sequence of rat VPAC1 receptor (rat) (P30083 31-459): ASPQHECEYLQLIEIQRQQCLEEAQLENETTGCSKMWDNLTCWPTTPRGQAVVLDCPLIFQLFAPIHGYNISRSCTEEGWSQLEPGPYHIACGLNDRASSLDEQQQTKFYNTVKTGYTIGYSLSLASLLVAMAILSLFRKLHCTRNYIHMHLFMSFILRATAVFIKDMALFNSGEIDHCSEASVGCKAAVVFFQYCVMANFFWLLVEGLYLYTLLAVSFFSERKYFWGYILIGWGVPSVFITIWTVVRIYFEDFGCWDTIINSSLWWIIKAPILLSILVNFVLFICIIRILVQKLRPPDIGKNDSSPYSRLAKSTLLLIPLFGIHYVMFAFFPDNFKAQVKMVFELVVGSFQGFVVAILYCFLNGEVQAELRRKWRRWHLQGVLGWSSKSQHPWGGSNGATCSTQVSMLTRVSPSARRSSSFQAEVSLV

Row | EC50, cAMP generation (DiscoveRx) [nM] | Substance
1 | 0.02 | vasoactive intestinal peptide (VIP)
2 | 0.07 | pituitary adenylate cyclase-activating polypeptide PACAP-27
